According to article PMC3531455, “PTH1 Receptor Is Involved in Mediating Cellular Response to Long-Chain Polyunsaturated Fatty Acids” (PLoS ONE, 2012):
Values belong to the compound of their own block, whether it stands above or below them.

Assays:
[1] = molecular target: T1, PTH1 receptor (PTH1R) (Homo sapiens, UniProt Q03431); assay: competitive fluorescence anisotropy displacement of PTH([…])TMR; format: binding
T1 construct: PTH1R in membrane fractions of transfected HEK293 cells
T1 sequence (Q03431 27-593): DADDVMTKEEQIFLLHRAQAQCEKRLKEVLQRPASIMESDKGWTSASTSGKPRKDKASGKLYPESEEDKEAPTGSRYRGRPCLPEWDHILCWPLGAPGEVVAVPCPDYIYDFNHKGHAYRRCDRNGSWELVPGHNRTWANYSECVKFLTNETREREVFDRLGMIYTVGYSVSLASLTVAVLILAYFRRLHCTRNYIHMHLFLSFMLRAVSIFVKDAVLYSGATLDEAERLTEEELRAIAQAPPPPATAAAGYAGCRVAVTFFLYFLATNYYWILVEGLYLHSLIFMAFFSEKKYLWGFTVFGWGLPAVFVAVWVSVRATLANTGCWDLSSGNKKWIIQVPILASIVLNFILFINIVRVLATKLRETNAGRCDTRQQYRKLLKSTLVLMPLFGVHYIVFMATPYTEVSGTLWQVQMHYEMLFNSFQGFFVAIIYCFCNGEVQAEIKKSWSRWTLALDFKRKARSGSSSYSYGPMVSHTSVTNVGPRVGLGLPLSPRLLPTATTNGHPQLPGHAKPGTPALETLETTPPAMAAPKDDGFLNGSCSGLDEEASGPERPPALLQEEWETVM

[2] = molecular target: T1, PTH1 receptor (PTH1R); assay: competitive fluorescence anisotropy displacement of PTH([…])TMR; supported by PTH-CC FRET conformational sensor; format: binding
[3] = molecular target: Parathyroid hormone type 1 receptor (PTH1R) (human) (UniProt Q03431); assay: fluorescence polarisation; fluorescence anisotropy, competitive displacement of 2 nM PTH(1–34)^TMR from PTH1R membrane fractions of transfected HEK293 cells; DPBS, 4 hours, room temperature; 96-well plates, 150 µL; IC50 converted to Ki by the Cheng-Prusoff equation
[4] = molecular target: Parathyroid hormone type 1 receptor (PTH1R) (human) (UniProt Q03431)

Ki [1]: 0.54 ± 0.16 nM
Compound: CC/C=C\C/C=C\C/C=C\C/C=C\C/C=C\C/C=C\CCC(=O)O [DHA, docosahexaenoic acid]

Ki [2]: 0.69 ± 0.25 nM
Compound: CC/C=C\C/C=C\C/C=C\C/C=C\C/C=C\CCCC(=O)O [EPA, eicosapentaenoic acid]

IC50 [3]: 3.43 nM
Ki [3]: 2.4 nM
ERK1/2 phosphorylation (Emax = pERKmax/ERK, western blot) in HEK293 cells transfected with PTH1R, PTH(1–34) dose response, 5 minutes; no significant increase in untransfected HEK293 cells [4]: 3.5 pERK/ERK
Compound: Human PTH(1–34) (peptide)

Ki [3]: 4.66 nM
Compound: Human [Lys-13(Nε-5-carboxy-TMR)]PTH(1–34)NH2 (peptide)
